The source of these data is the supplement of paper PMC9170038.

For this data set, the system named is K4 kissing-loop RNA reporter. The data set can be described thus: apparent KD of K4 kissing-loop reporter; higher = weaker reporter binding. The settings on record: Eterna round: R107. How it is done: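 RNA-MaP round R107: designed RNA switches with theophylline, tryptophan, arginine or FMN aptamers are transcribed on-chip within common flanks. They are titrated with a labelled K4 kissing-loop RNA reporter in RNA-MaP buffer (100 mM Tris pH 7.5, 80 mM KCl, 4 mM MgCl2), without ligand or with the indicated ligand. Median apparent KD per design.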

Setting [1] is: input ligand: theophylline 20 uM.
[2] abbreviates: input ligand: tryptophan 2.4 mM.
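Also: bound reporter read as fluorescence of individual clusters on recovered sequencing chips by microscopy, with normalized cluster intensities fitted with a binding model.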

As for “UUAUAUCUCUGACUUUCACUUUGCGUAUCUGAGGAUAUCUGAAUUCAGAGAAGGCAGUGAUGUUGCUUUGCUGUGUGUCUGAGAA [AK2 Exc FMN A]”, the “apparent KD of K4 kissing-loop reporter” value reads like this: (input ligand: FMN 200 uM) 702 nM; (input ligand: arginine 13.2 mM) 464 nM; (input ligand: none) 526 nM; under setting [1], 499 nM; under setting [2], 372 nM.

With “UUAUGUUUAGUUCACCCAGUGAUGUUGGAAGGAGCGUGCGAAAGCACAGGUAGGUCGCCAACCUUAAAGUGUCUUGAUUAUCUAA [JR_Nu_ExcArginiA_Sub029]”, the “apparent KD of K4 kissing-loop reporter” value by setting is: (input ligand: FMN 200 uM) 400 nM; (input ligand: arginine 13.2 mM) 499 nM; (input ligand: none) 411 nM; under setting [1], 386 nM; under setting [2], 364 nM.

With “UUAUUAAUAACAGAUACCAGUCCAGAAUGAAUACUAUAGUGAUGUUAUAAUAAAGGGAAGGACCCUUGGCAGCUGUAAUAUAUUU [AstrosSSTheB#1]”, the “apparent KD of K4 kissing-loop reporter” value was determined as 431 nM (input ligand: FMN 200 uM); 381 nM (input ligand: arginine 13.2 mM); 501 nM (input ligand: none); 338 nM under setting [1]; 368 nM under setting [2].

Take “UUCAGUGACAUACGAGUGAUGUUCGUAAUACGAGGACCGGUACGGCCGCCACUCGCACGUCGGCAGUUUGUUCAUGCAUCAGACU”: the “apparent KD of K4 kissing-loop reporter” value runs as follows: (input ligand: FMN 200 uM) 226 nM; (input ligand: arginine 13.2 mM) 160 nM; (input ligand: none) 259 nM; under setting [1], 255 nM; under setting [2], 514 nM.

As to “UUCAGUGAUGAUGAACACUGUUGUAUAAACUAGGAUAUGCUGAUAAGCAGAAGGAGUGAUGUUCCGUUCAUCAUCAGAAUUAAAU [KL-XFMN-A4]”, the “apparent KD of K4 kissing-loop reporter” value (input ligand: FMN 200 uM) came to 619 nM; the “apparent KD of K4 kissing-loop reporter” value (input ligand: arginine 13.2 mM) came to 378 nM; the “apparent KD of K4 kissing-loop reporter” value (input ligand: none) is 371 nM; the “apparent KD of K4 kissing-loop reporter” value under setting [1] turned out to be 407 nM; the “apparent KD of K4 kissing-loop reporter” value under setting [2] is 255 nM.

With “UUCGAAAGUCGAAGGAGCGCUGGCGGUCAUAGACUAUAUCUGUAGUGAUGUUACAGAUUCCAGCAGGUAGGUCGCGACAGAGACA [Arg B SS t18b]”, the “apparent KD of K4 kissing-loop reporter” value runs as follows: (input ligand: FMN 200 uM) 124 nM; (input ligand: arginine 13.2 mM) 88.4 nM; (input ligand: none) 107 nM; under setting [1], 89.8 nM; under setting [2], 108 nM.

Turning to “UUCGAUCAGUGAUGUUGAUCAAUAGUCGAAGGAGCGCUAUAGAUAGCAGGUAGGUCGCGGCUACAGGGUGUUAAGACACCCAGAA [#13 K4 Arginine A Same State]”, the “apparent KD of K4 kissing-loop reporter” value worked out at 534 nM (input ligand: FMN 200 uM); 450 nM (input ligand: arginine 13.2 mM); 453 nM (input ligand: none); 477 nM under setting [1]; 488 nM under setting [2].

Take “UUCGAUCAGUGAUGUUGAUCAUCAGUCGAAGGAGCGCUAGAGAUAGCAGGUAGGUCGCGACUGCAAGGUGUGAGAACACCUCGAA [Arg A SS t9a]”: the “apparent KD of K4 kissing-loop reporter” value stood at 457 nM (input ligand: FMN 200 uM); 358 nM (input ligand: arginine 13.2 mM); 487 nM (input ligand: none); 444 nM under setting [1]; 255 nM under setting [2].

Take “UUCUUGAUGGAAACAUCGAGUAUUACUGAUACCAGUAUCGAUAGAUACCCUUGGCAGCAGAAUCAGUAAUAACGAGUGAUGUUCG [Ex Theophylline A K4 5]”: the “apparent KD of K4 kissing-loop reporter” value (input ligand: FMN 200 uM) came out at 509 nM; the “apparent KD of K4 kissing-loop reporter” value (input ligand: arginine 13.2 mM) worked out at 494 nM; the “apparent KD of K4 kissing-loop reporter” value (input ligand: none) was 505 nM; the “apparent KD of K4 kissing-loop reporter” value under setting [1] was 567 nM; the “apparent KD of K4 kissing-loop reporter” value under setting [2] was found to be 480 nM.

Turning to “UUGAGCCGGACGUAAGUCCGGCUCUGCGAGCGAGGACCGGUACGGCCGCCACUCGGUGCAGUGAUGUUGCAUGGCCGCAAGGCCG [#2 Exclusion - Tryptophan A Attempt #5 (HarryS)]”, the “apparent KD of K4 kissing-loop reporter” value was found to be 324 nM (input ligand: FMN 200 uM); 233 nM (input ligand: arginine 13.2 mM); 235 nM (input ligand: none); 394 nM under setting [1]; 278 nM under setting [2].

Turning to “UUGCAAGAGUCGGCCGCCACUCCGGGCCCUAUAAAUGGGCGCAGUGAUGUUGCGGCUAGGCCUCUGAGGACCGGGACUUUGUAGC [Ateusraor]”, the “apparent KD of K4 kissing-loop reporter” value is, setting by setting: (input ligand: FMN 200 uM) 51 nM; (input ligand: arginine 13.2 mM) 55.4 nM; (input ligand: none) 78.5 nM; under setting [1], 82.9 nM; under setting [2], 111 nM.

As to “UUGGAAAUCAGAAGGAGCGUCUAAAAUGAAGGAACCAGUGAUGUUGGUUUUAUUUAAUGAAGACAGGUAGGUCGCUGAAUUUUUA [Same State Arginie B GF 18]”, the “apparent KD of K4 kissing-loop reporter” value runs as follows: (input ligand: FMN 200 uM) 91.4 nM; (input ligand: arginine 13.2 mM) 101 nM; (input ligand: none) 94.4 nM; under setting [1], 116 nM; under setting [2], 91.5 nM.

On to “UUGGCAGUGAUGUUGCCAGAGCUCACCGAAGGAGCGCGUGAAAACGCAGGUAGGUCGCGGUAGCGGAGUGAUUCUCCGCGAGGGC [Same State Arginine A GF 21]”, for which the “apparent KD of K4 kissing-loop reporter” value runs as follows: (input ligand: FMN 200 uM) 44.5 nM; (input ligand: arginine 13.2 mM) 71.7 nM; (input ligand: none) 77.2 nM; under setting [1], 80.3 nM; under setting [2], 87.9 nM.

Turning to “UUGGCCCGGCCGGAAGGCCGGGCCUGCGAGCGAGGACCGGUACGGCCGCCACUCGGCGCAGUGAUGUUGCGUGGCCGCAAGGCCG [#2 Exclusion - Tryptophan A Attempt #1 (HarryS)]”, the “apparent KD of K4 kissing-loop reporter” value came to 370 nM (input ligand: FMN 200 uM); 337 nM (input ligand: arginine 13.2 mM); 439 nM (input ligand: none); 581 nM under setting [1]; 874 nM under setting [2].

As for “UUGGCCGGACGGGAUACCAGUCAAAUCGUGUGCUUGGGAUGUCUAAGAGCCAGUGAUGUUGGCCCUUGGCAGCCCUCCCAGCUUG [Esleaqu]”, the “apparent KD of K4 kissing-loop reporter” value reads like this: (input ligand: FMN 200 uM) 111 nM; (input ligand: arginine 13.2 mM) 105 nM; (input ligand: none) 110 nM; under setting [1], 102 nM; under setting [2], 93.5 nM.

With “UUGUUUGGUUGAGAGGUUGGGCGAAAUGAUACCAGUAUAUAAGAAUACCCUUGGCAGCAUAAGAAAGAUAUAGUGAUGUUGUAUA [SSTheophA.L]”, the “apparent KD of K4 kissing-loop reporter” value stood at 597 nM (input ligand: FMN 200 uM); 320 nM (input ligand: arginine 13.2 mM); 431 nM (input ligand: none); 560 nM under setting [1]; 411 nM under setting [2].

As to “UUGUUUGGUUGAGAGGUUGGGCGAGAUGAUACCAGUAGAGAAGAGUACCCUUGGCAGCAUAAGAAAGAUAUAGUGAUGUUGUAUA [SSTheophA.P]”, the “apparent KD of K4 kissing-loop reporter” value (input ligand: FMN 200 uM) stood at 422 nM; the “apparent KD of K4 kissing-loop reporter” value (input ligand: arginine 13.2 mM) came out at 362 nM; the “apparent KD of K4 kissing-loop reporter” value (input ligand: none) was 546 nM; the “apparent KD of K4 kissing-loop reporter” value under setting [1] came to 566 nM; the “apparent KD of K4 kissing-loop reporter” value under setting [2] turned out to be 396 nM.

On to “UUGUUUGGUUGAGAGGUUGGGCGAGAUGAUACCAGUAUAGUAUUGUACCCUUGGCAGCAUAGGAGAGAUAUAGUGAUGUUGUAUG [SSTheophA.W]”, for which the “apparent KD of K4 kissing-loop reporter” value amounted to 419 nM (input ligand: FMN 200 uM); 320 nM (input ligand: arginine 13.2 mM); 457 nM (input ligand: none); 416 nM under setting [1]; 328 nM under setting [2].

Turning to “UUUAAAUAUAGUGAUGUUAUAUAACAAUGACGAGGACCGGUACGGCCGCCACUCGAGAGAGAUAAUGGUCGUUAGAAUCUAACGC [AstrosSSTryA#5]”, the “apparent KD of K4 kissing-loop reporter” value is, setting by setting: (input ligand: FMN 200 uM) 760 nM; (input ligand: arginine 13.2 mM) 778 nM; (input ligand: none) 685 nM; under setting [1], 963 nM; under setting [2], 484 nM.

“UUUAACGAGUGAUGUUCGAAGAGUAAUGGUGAGGAUAUCGAUUUUUCGAGAAGGCGCCUCGAAGUGAUACGAAAGUAUCGCUUCG [FMN A 6]”: the “apparent KD of K4 kissing-loop reporter” value reads like this: (input ligand: FMN 200 uM) 239 nM; (input ligand: arginine 13.2 mM) 247 nM; (input ligand: none) 286 nM; under setting [1], 253 nM; under setting [2], 255 nM.

As for “UUUAUAAGGUCGGCCGCCACUGGAUUUAUGUUUGUUUCGUCUGGAUCAAAGUGAUGUUUUGAGUCCAGGACCGGGACAUUUGUUA [whbob_Ex_Tryp_B_w39]”, the “apparent KD of K4 kissing-loop reporter” value by setting is: (input ligand: FMN 200 uM) 86.6 nM; (input ligand: arginine 13.2 mM) 76.5 nM; (input ligand: none) 79.3 nM; under setting [1], 75.6 nM; under setting [2], 90.5 nM.

In the case of “UUUAUAAUGUCGGCCGCCACUGGAUUAAUAUUUGUAUAAUCUAGUUCUAAGUGAUGUUUAGAGUCCAGGACCGGGACAUUUGUUA [#09 K4 Tryptophan B Exclusion]”, the “apparent KD of K4 kissing-loop reporter” value (input ligand: FMN 200 uM) is 395 nM; the “apparent KD of K4 kissing-loop reporter” value (input ligand: arginine 13.2 mM) stood at 282 nM; the “apparent KD of K4 kissing-loop reporter” value (input ligand: none) turned out to be 300 nM; the “apparent KD of K4 kissing-loop reporter” value under setting [1] came to 311 nM; the “apparent KD of K4 kissing-loop reporter” value under setting [2] turned out to be 212 nM.
